Tested on: Escherichia coli TOP10
Experiment: shrunken log2 fold change of peptide-encoding DNA abundance (4.5 h post-induction vs induction); higher = less antimicrobial activity (less host growth inhibition)
Conditions: time post-induction: 4.5 h; library: site-saturation at positions 5, 18, 19, 20
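Also: peptides expressed intracellularly from a pBAD plasmid library in pooled LB shake-flask culture, induced with 0.3% L-arabinose, DNA abundance read by NGS, three biological replicates, DESeq2 with apeglm shrinkage.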

| Sequence | shrunken log2 fold change |
| --- | --- |
| RRIRGRPPRLPRPRPRPYESPRP | 0.133 |
| RRIRGRPPRLPRPRPRPIIAPRP | 0.571 |
| RRIRRRPPRLPRPRPRPSFFPRP | 0.0112 |
| RRIRARPPRLPRPRPRPPGKPRP | 0.188 |
| RRIRFRPPRLPRPRPRPMWHPRP | 0.0814 |
| RRIRDRPPRLPRPRPRPCCAPRP | 0.58 |
| RRIRMRPPRLPRPRPRPMKRPRP | 0.573 |
| RRIRTRPPRLPRPRPRPKTRPRP | 0.221 |
| RRIRWRPPRLPRPRPRPRQQPRP | -0.0369 |
| RRIRSRPPRLPRPRPRPEYAPRP | 0.496 |
| RRIRNRPPRLPRPRPRPYGHPRP | -0.256 |
| RRIRPRPPRLPRPRPRPECQPRP | 0.126 |
| RRIRRRPPRLPRPRPRPFSCPRP | 0.082 |
| RRIRSRPPRLPRPRPRPQEYPRP | -0.257 |
| RRIRQRPPRLPRPRPRPAIPPRP | 0.0602 |
| RRIRSRPPRLPRPRPRPAICPRP | 0.147 |
| RRIRERPPRLPRPRPRPMCYPRP | -0.403 |
| RRIRPRPPRLPRPRPRPADYPRP | 0.0631 |
| RRIRHRPPRLPRPRPRPWLRPRP | -0.0716 |
| RRIRDRPPRLPRPRPRPDSHPRP | 0.0162 |
| RRIRNRPPRLPRPRPRPWLPPRP | -0.0828 |
| RRIRSRPPRLPRPRPRPSATPRP | 0.168 |
| RRIRARPPRLPRPRPRPSWQPRP | 0.223 |

| Sequence | shrunken log2 fold change |
| --- | --- |
| RRIRCRPPRLPRPRPRPHRGPRP | 0.0133 |
| RRIRHRPPRLPRPRPRPNELPRP | 0.031 |
| RRIRSRPPRLPRPRPRPMWKPRP | -0.101 |
| RRIRSRPPRLPRPRPRPMAFPRP | -0.0285 |
| RRIRCRPPRLPRPRPRPYIQPRP | -0.3 |
| RRIRKRPPRLPRPRPRPACHPRP | 0.211 |
| RRIRQRPPRLPRPRPRPTILPRP | 0.939 |
| RRIRDRPPRLPRPRPRPDRPPRP | -0.251 |
| RRIRGRPPRLPRPRPRPQGLPRP | 0.335 |
| RRIRNRPPRLPRPRPRPIILPRP | -0.234 |
| RRIRYRPPRLPRPRPRPQPSPRP | 0.0385 |
| RRIRGRPPRLPRPRPRPETWPRP | 1.28 |
| RRIRCRPPRLPRPRPRPCLMPRP | -0.421 |
| RRIRLRPPRLPRPRPRPCDPPRP | -0.14 |
| RRIRARPPRLPRPRPRPYEIPRP | -0.059 |
| RRIRMRPPRLPRPRPRPISNPRP | -0.0517 |
| RRIRQRPPRLPRPRPRPQHMPRP | 0.0284 |
| RRIRDRPPRLPRPRPRPANFPRP | 0.0245 |
| RRIRERPPRLPRPRPRPIDAPRP | 0.0409 |
| RRIRWRPPRLPRPRPRPARLPRP | 0.523 |
| RRIRQRPPRLPRPRPRPWPCPRP | -0.0164 |
| RRIRTRPPRLPRPRPRPRCIPRP | 0.0613 |
| RRIRPRPPRLPRPRPRPEKWPRP | 0.0413 |

| Sequence | shrunken log2 fold change |
| --- | --- |
| RRIRFRPPRLPRPRPRPKITPRP | -0.448 |
| RRIRQRPPRLPRPRPRPNQYPRP | -0.529 |
| RRIRERPPRLPRPRPRPDKMPRP | -0.0703 |
| RRIRGRPPRLPRPRPRPARPPRP | 0.63 |
| RRIRFRPPRLPRPRPRPRKFPRP | 0.171 |
| RRIRVRPPRLPRPRPRPMKAPRP | 0.0113 |
| RRIRGRPPRLPRPRPRPPITPRP | 0.0357 |
| RRIRARPPRLPRPRPRPMLCPRP | 0.637 |
| RRIRQRPPRLPRPRPRPMMCPRP | -0.0115 |
| RRIRQRPPRLPRPRPRPVEGPRP | 0.294 |
| RRIRPRPPRLPRPRPRPSVWPRP | -0.0905 |
| RRIRSRPPRLPRPRPRPELKPRP | -0.0512 |
| RRIRLRPPRLPRPRPRPDWIPRP | -0.0697 |
| RRIRVRPPRLPRPRPRPSFCPRP | 0.212 |
| RRIRHRPPRLPRPRPRPICEPRP | -0.369 |
| RRIRHRPPRLPRPRPRPPLDPRP | 0.372 |
| RRIRNRPPRLPRPRPRPSYRPRP | -0.102 |
| RRIRERPPRLPRPRPRPEYMPRP | -0.0257 |
| RRIRNRPPRLPRPRPRPDYVPRP | -0.296 |
| RRIRYRPPRLPRPRPRPGCMPRP | -0.546 |
| RRIRVRPPRLPRPRPRPQYYPRP | -0.238 |
| RRIRWRPPRLPRPRPRPGVEPRP | 0.579 |
| RRIRFRPPRLPRPRPRPCYVPRP | -0.0693 |

| Sequence | shrunken log2 fold change |
| --- | --- |
| RRIRCRPPRLPRPRPRPSGLPRP | 0.0264 |
| RRIRERPPRLPRPRPRPHQQPRP | 0.119 |
| RRIRIRPPRLPRPRPRPKHKPRP | -0.508 |
| RRIRQRPPRLPRPRPRPHWWPRP | 0.38 |
| RRIRNRPPRLPRPRPRPNVKPRP | -0.324 |
| RRIRRRPPRLPRPRPRPEQHPRP | 0.592 |
| RRIRTRPPRLPRPRPRPNNNPRP | -0.451 |
| RRIRGRPPRLPRPRPRPFPFPRP | -0.0622 |
| RRIRWRPPRLPRPRPRPAIDPRP | 0.294 |
| RRIRVRPPRLPRPRPRPKYTPRP | -0.421 |
| RRIRTRPPRLPRPRPRPSTVPRP | 0.0213 |
| RRIRTRPPRLPRPRPRPRHNPRP | -0.293 |
| RRIRRRPPRLPRPRPRPYTSPRP | -0.313 |
| RRIRRRPPRLPRPRPRPRLNPRP | 0.522 |
| RRIRSRPPRLPRPRPRPIYWPRP | -0.0771 |
| RRIRNRPPRLPRPRPRPQEFPRP | -0.0043 |
| RRIRDRPPRLPRPRPRPWPEPRP | -0.0683 |
| RRIRVRPPRLPRPRPRPSMFPRP | -0.245 |
| RRIRVRPPRLPRPRPRPAINPRP | -0.259 |
| RRIRQRPPRLPRPRPRPIFGPRP | -0.00652 |
| RRIRQRPPRLPRPRPRPEVWPRP | 0.552 |
| RRIRFRPPRLPRPRPRPGWMPRP | -0.0518 |

Source: the supplement of paper PMC9112550, “Optimization of the antimicrobial peptide Bac7 by deep mutational scanning” (BMC Biology, 2022)
